Results from patent US20060193849A1 (ANTISOMA, published 2006).

B1: huHMFG1 scFv mutant 4.9M (stability engineered huHMFG1-scFv/Clone 4.9) (scFv)
scFv: QVQLVQSGAEVKKPGASVKVSCKASGYTFSAYWIEWVRQAPGKGLEWVGEILPGSNNSRYNEKFKGRVTVTADTSTNTAYMELSSLRSEDTAVYYCARSYDFAWFAYWGQGTLVTVSSGGGGSGGGGSGGGGSDIQMTQSPSSLSASVGDRVTITCKSSQSLLYSSNQKIYLAWYQQKPGKAPKLLIYWASTRESGVPSRFSGSGSGTDFTFTISSLQPEDIATYYCQQYYRYPRTFGQGTKVEIKR
notes: also called scFv 4.9M; HMFG1-scFv 4.9M
B2: diabody Db 4.9M (other)
chain 1: QVQLVQSGAEVKKPGASVKVSCKASGYTFSAYWIEWVRQAPGKGLEWVGEILPGSNNSRYNEKFKGRVTVTADTSTNTAYMELSSLRSEDTAVYYCARSYDFAWFAYWGQGTLVTVSSGGGGSDIQMTQSPSSLSASVGDRVTITCKSSQSLLYSSNQKIYLAWYQQKPGKAPKLLIYWASTRESGVPSRFSGSGSGTDFTFTISSLQPEDIATYYCQQYYRYPRTFGQGTKVEIKR
chain 2: B2 chain 1
notes: also called diabody 4.9

Tests used:
[1] = biological target: T1, MUC-1 gene product, the membrane mucin glycoprotein (polymorphic epithelial mucin or PEM) (human, UniProt P15941 24-1255); test: flow cytometry equilibrium binding on MCF7 cells, non-linear regression; 0 h at 37 C
T1 construct: whole, on cells; SKOV-3 is also named in the method
T1 sequence (P15941 24-1255): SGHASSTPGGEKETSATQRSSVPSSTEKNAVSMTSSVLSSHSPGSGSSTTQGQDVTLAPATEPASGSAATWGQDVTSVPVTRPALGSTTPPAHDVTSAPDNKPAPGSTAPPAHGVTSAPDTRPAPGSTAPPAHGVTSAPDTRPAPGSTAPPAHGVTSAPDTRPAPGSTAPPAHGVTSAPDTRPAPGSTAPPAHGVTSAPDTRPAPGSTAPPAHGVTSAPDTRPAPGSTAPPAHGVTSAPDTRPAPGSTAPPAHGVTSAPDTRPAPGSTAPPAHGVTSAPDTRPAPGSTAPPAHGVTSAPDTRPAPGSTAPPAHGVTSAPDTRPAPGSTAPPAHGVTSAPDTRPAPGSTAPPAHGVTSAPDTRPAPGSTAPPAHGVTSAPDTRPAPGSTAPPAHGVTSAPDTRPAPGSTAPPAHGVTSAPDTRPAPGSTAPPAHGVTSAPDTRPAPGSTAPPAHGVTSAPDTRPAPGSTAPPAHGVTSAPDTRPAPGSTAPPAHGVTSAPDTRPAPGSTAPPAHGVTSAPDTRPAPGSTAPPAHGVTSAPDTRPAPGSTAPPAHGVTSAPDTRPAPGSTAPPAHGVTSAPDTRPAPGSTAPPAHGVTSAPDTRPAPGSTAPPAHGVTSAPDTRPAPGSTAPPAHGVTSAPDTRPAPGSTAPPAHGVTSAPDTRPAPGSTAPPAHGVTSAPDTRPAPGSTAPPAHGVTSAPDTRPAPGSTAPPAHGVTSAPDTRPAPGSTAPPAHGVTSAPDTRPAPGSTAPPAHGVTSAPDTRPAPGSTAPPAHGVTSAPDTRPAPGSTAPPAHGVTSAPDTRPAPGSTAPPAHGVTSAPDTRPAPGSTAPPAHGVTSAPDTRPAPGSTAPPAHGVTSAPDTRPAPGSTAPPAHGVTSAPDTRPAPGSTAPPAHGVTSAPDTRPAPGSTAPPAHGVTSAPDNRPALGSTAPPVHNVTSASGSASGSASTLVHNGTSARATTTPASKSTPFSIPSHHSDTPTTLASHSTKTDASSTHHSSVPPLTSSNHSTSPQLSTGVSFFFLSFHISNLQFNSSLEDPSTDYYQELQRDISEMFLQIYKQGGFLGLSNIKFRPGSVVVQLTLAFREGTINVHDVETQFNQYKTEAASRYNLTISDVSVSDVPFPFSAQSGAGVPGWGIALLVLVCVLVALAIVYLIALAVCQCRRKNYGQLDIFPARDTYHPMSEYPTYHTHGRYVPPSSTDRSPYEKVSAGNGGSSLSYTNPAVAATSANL
Procedure: (§1) Bound antibodies were detected under the same conditions, as described in the section entitled binding assays above.
After two final washing steps in 200 μl of FACS buffer, the cells were fixed in PBS buffer containing 2% paraformaldehyde for 15 minutes at room temperature and analysed by flow cytometry.
(§2) The median fluorescence intensity (MFI) was determined as described in the binding assays section above and the background fluorescence was subtracted. Equilibrium constants were determined by using the Marquardt-Levenberg algorithm for non-linear regression with the GraphPad Prism version 3.0a for Macintosh (GraphPad Software, San Diego, Calif.).

[2] = biological target: T1, MUC-1 gene product, the membrane mucin …; test: flow cytometry equilibrium binding on MCF7 cells; after pre-incubation in PBS for 1 h at 37 C against no pre-incubation
Procedure: as §1, §2

[3] = biological target: T1, MUC-1 gene product, the membrane mucin …; test: flow cytometry equilibrium binding on MCF7 cells, non-linear regression; after pre-incubation in PBS for 1 h at 37 C
Procedure: as §1, §2

[4] = biological target: T1, MUC-1 gene product, the membrane mucin …; test: flow cytometry equilibrium binding on MCF7 cells; reference scFv 4.9M
Procedure: as §1, §2

Row | Binder | Kd [1] | fold decrease in antigen binding affinity after 1 hour at 37° C. in PBS [2] | Kd [3] | fold higher affinity than the corresponding scFv 4.9M [4]
1 | B1 | 103 nM | 1.9 fold | 195 nM | 
2 | B2 | 8 nM |  |  | 13 fold
